Laboratory results reported in patent US20210145976A1 (ARO BIOTHERAPEUTICS, published 2021).
Numbering of substitutions follows the chain as printed.

B1: SEQ ID NO 54 (designed binder)
chain: MLPAPKNLVVSRVTEDSARLSWTAPDAAFDSFQILYQENAFEGEAIVLTVPGSERSYDLTGLKPGTEYWVYIYGVKGGYPSVPLSAIFTT
notes: FN3 domain
B2: SEQ ID NO 38 (designed binder)
chain: MLPAPKNLVVSRVTEDSARLSWTAPDAAFDSFHIAYEESHTTGEAIFLRVPGSERSYDLTGLKPGTEYSVSIEGVKGGHYSPPLTAKFTT
notes: FN3 domain
B3: SEQ ID NO 40 (designed binder)
chain: MLPAPKNLVVSRVTEDSARLSWTAPDAAFDSFVIEYWEYVGHGEAIVLTVPGSERSYDLTGLKPGTEYSVGIYGVKGGSLSRPLSAIFTT
notes: FN3 domain
B4: SEQ ID NO 53 (designed binder)
chain: MLPAPKNLVVSRVTEDSARLSWTAPDAAFDSFFISYIEWWDLGEAIVLTVPGSERSYDLTGLKPGTEYHVEIFGVKGGTQSYPLSAIFTT
notes: FN3 domain
B5: SEQ ID NO 43 (designed binder)
chain: B1 chain with Q33Y, L35E, Q37Y, N39S, A40Y, F41P, E42G, W69D, P80W, V82R
notes: FN3 domain
B6: SEQ ID NO 41 (designed binder)
chain: MLPAPKNLVISRVTEDSARLSWTAPDAAFDSFFIYYIESYPAGEAIVLTVPGSERSYDLTGLKPGTEYWVGIDGVKGGRWSTPLSAIFTT
notes: FN3 domain
B7: SEQ ID NO 57 (designed binder)
chain: B4 chain with F33S, S35K, I37L, D41Q, L42D, H69Y, E71H, F73A, T79Y, Q80R
notes: FN3 domain
B8: SEQ ID NO 47 (designed binder)
chain: MLPAPKNLVVSRVTEDSARLSWTAPDAAFDSFTIWYAEALGDGEAIVLTVPGSERSYDLTGLKPGTEYFVDIYGVKGGFWSLPLSAIFTT
notes: FN3 domain
B9: SEQ ID NO 48 (designed binder)
chain: B3 chain with W37F, Y39Q, V40F, G41N, H42L, S69W, S79W, R82H
notes: FN3 domain
B10: SEQ ID NO 56 (designed binder)
chain: B3 chain with W37F, Y39A, V40L, G41E, H42G, S69F, S79P, R82K
notes: FN3 domain
B11: SEQ ID NO 60 (designed binder)
chain: B8 chain with L40I, D42H, F69W, Y73W, F79Q, W80Q, L82K
notes: FN3 domain
B12: SEQ ID NO 46 (designed binder)
chain: B3 chain with V33T, W37F, Y39F, V40T, H42T, S69Y, G71S, S79L, R82A
notes: FN3 domain
B13: SEQ ID NO 55 (designed binder)
chain: B3 chain with V33I, Y39F, H42Y, S69W, G71A, S79D, R82K
notes: FN3 domain
B14: SEQ ID NO 45 (designed binder)
chain: B6 chain with I10V, F33A, I37L, A42E, R79T, T82S
notes: FN3 domain
B15: SEQ ID NO 42 (designed binder)
chain: B3 chain with V33T, W37Y, Y39S, V40F, G41Y, H42G, S69Y, G71S, S79W
notes: FN3 domain
B16: SEQ ID NO 37 (designed binder)
chain: MLPAPKNLVVSRVTEDSARLSWTAPDAAFDSFHIIYTEEEKEGEAIYLRVPGSERSYDLTGLKPGTEYLVEIEGVKGGKRSVPLNASFTT
notes: FN3 domain
B17: SEQ ID NO 34 (designed binder)
chain: MLPAPKNLVVSRVTEDSARLSWTAPDAAFDSFAITYIEWWDVGEAIGLKVPGSERSYDLTGLKPGTEYRVHIQGVKGGNNSYPLDALFTT
notes: FN3 domain
B18: SEQ ID NO 35 (designed binder)
chain: MLPAPKNLVVSRVTEDSARLSWTAPDAAFDSFEIAYFEAIWNGEAIYLTVPGSERSYDLTGLKPGTEYQVEIRGVKGGPTSRPLFAWFTT
notes: FN3 domain

Molecular target: T1, recombinant biotinylated CD71 extracellular domain (Sino Biologics) with an N-terminal 6His tag (human, UniProt P02786 89-760, biotinylated (sites not given))
T1 construct: extracellular domain; also called hCD71; huCD71
T1 sequence (P02786 other isoform, or with tags, fused parts or gaps): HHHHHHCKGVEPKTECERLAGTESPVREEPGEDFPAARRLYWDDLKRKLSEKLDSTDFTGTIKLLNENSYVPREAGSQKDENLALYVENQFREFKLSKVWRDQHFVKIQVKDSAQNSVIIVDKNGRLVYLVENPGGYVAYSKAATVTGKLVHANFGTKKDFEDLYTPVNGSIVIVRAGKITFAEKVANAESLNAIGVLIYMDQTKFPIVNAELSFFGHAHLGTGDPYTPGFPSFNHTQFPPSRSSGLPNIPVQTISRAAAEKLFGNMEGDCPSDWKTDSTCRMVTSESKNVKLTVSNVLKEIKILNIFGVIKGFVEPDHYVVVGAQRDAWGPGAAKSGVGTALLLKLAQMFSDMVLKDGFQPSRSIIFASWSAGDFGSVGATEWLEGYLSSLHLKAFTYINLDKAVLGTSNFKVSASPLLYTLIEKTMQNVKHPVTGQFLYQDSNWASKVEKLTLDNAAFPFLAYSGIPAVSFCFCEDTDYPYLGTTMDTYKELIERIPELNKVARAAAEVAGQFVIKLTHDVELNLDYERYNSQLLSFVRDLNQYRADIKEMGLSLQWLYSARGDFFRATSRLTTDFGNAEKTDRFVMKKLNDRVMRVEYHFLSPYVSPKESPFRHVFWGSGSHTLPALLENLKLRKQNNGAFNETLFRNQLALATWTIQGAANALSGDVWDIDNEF
Assay: screening ELISA
Procedure: (§1) To screen for FN3 domains that specifically bind CD71, streptavidin-coated Maxisorp plates (Nunc catalog 436110) were blocked for 1 hour in Starting Block T20 (Pierce) and then coated with biotinylated CD71 (using same antigen as in panning) or negative controls (an unrelated Fc-fused recombinant protein and human serum albumin) for 1 hour. Plates were rinsed with TBST and diluted lysate was applied to plates for 1 hour. Following additional rinses, wells were treated with HRP-conjugated anti-V5 tag antibody (Abcam, ab1325), for 1 hour and then assayed with POD (Roche, 11582950001).

| Binder | hCD71 |
| --- | --- |
| B1 | 6.99e+06 |
| B2 | 840000 |
| B3 | 220000 |
| B4 | 1.01e+06 |
| B5 | 1.62e+06 |
| B6 | 4.27e+06 |
| B7 | 1.9e+06 |
| B8 | 265000 |
| B9 | 943000 |
| B10 | 1.13e+07 |
| B11 | 4.48e+06 |
| B12 | 113000 |
| B13 | 1.11e+07 |
| B14 | 1.93e+06 |
| B15 | 2.83e+06 |
| B16 | 1.27e+06 |
| B17 | 310000 |
| B18 | 3.24e+06 |

Molecular target: T1, recombinant biotinylated CD71 …
Assay: screening ELISA, ratio
Procedure: as §1

| Binder | huCD71/Fc |
| --- | --- |
| B1 | 1130 |
| B2 | 202 |
| B3 | 74.4 |
| B4 | 110 |
| B5 | 199 |
| B6 | 423 |
| B7 | 113 |
| B8 | 50.9 |
| B9 | 337 |
| B10 | 1510 |
| B11 | 691 |
| B12 | 37 |
| B13 | 1440 |
| B14 | 669 |
| B15 | 478 |
| B16 | 467 |
| B17 | 12 |
| B18 | 2130 |

Molecular target: T2, CD71 on SK-BR-3 cells (human, UniProt P02786 1-760)
T2 sequence (P02786 whole entry): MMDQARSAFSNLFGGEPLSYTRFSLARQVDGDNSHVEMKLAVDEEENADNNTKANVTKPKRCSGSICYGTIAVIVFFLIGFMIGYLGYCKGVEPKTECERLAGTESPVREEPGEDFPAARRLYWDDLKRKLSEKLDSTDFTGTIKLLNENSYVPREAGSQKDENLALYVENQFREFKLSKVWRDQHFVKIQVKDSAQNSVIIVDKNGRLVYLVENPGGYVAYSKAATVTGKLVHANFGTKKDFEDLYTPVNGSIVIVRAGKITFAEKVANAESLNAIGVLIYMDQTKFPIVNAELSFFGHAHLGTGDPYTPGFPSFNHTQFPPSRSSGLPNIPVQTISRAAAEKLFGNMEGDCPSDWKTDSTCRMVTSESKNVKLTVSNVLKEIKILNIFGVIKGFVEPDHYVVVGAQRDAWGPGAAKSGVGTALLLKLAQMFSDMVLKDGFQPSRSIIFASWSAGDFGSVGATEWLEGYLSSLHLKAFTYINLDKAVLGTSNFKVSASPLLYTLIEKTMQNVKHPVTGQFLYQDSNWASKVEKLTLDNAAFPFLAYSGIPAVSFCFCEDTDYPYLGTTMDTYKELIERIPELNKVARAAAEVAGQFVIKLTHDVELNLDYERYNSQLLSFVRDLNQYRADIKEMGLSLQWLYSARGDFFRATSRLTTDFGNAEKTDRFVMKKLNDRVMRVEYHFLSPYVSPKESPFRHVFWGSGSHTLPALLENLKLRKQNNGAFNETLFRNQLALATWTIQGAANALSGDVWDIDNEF
Assay: cell-based or functional assay

| Binder | IC50, SKBR-3 cell viability, MMAF conjugate [nM] |
| --- | --- |
| B1 | 0.4 |
| B2 | 3.82 |
| B3 | 3 |
| B4 | 0.07 |
| B5 | 0.069 |
| B6 | 4.7 |
| B7 | 3.13 |
| B8 | 5.9 |
| B9 | 0.42 |
| B10 | 0.24 |
| B11 | 0.45 |
| B12 | 2.69 |
| B13 | 0.026 |
| B14 | 8.3 |
| B15 | 0.19 |
| B16 | 0.15 |
| B17 | 0.37 |
| B18 | 2.5 |

Molecular target: T2, CD71 on SK-BR-3 cells
Assay: cell-based or functional assay
Remark: another data set of the same source

| Binder | IC50, SK-BR3 viability, MMAF conjugate, no competitor [nM] | IC50, SK-BR3 viability, MMAF conjugate, with 0.6 uM holo-human transferrin [nM] |
| --- | --- | --- |
| B1 | 0.13 | 5 |
| B2 | 4 | ~120 |
| B3 | 2.2 | ~100 |
| B4 | 3.6 | ~90 |
| B5 | 0.97 | ~80 |
| B6 | 0.01 | 0.5 |
| B7 | 0.38 | 5.3 |
| B8 | 1.6 | ~85 |
| B9 | 1.3 | ~70 |
| B10 | 0.35 | 14.7 |
| B11 | 0.21 | 14.4 |
| B12 | 3 | ~100 |
| B13 | 0.15 | 5.5 |
| B14 | 0.05 | 0.9 |
| B15 | 2.4 | ~70 |
| B16 | 0.7 | 143 |
| B17 | 1.3 | 196 |
| B18 | 0.7 | 41.5 |
